From PMC6448596 (Cell reports, 2019) come the findings set out here.

The target in this test is His-SUMO-WDR5(22–334) (human, UniProt P61964 22-334). The experiment in a line: AlphaScreen or HTRF. In general terms: Bead proximity is the source of the signal in Alpha formats.

Regarding ARTEVHLRKS [10-mer-Thr-FAM (ARTEVHLRKS-(Ahx-Ahx)(Lys-(5-FAM)))], the binding result was “binds”.
